According to patent EP4663654A1 (Hangzhou Sciwind Biosciences Co., Ltd., dated 2025):
Starred links: 1 amine or outer side, 2 acyl side, 3 side chain; linkers in the order of their positions; H or OH if unused. Non-standard residues stand in square brackets, D forms with d. *: point of attachment. C20 diacid = O=C(O)CCCCCCCCCCCCCCCCCCC(=O)*; γGlu = O=C(O)[C@H](CCC(=O)[*:2])N[*:1]; Hyp = O=C(O)[C@@H]1C[C@@H](O)CN1; NMeD = CN[C@@H](CC(=O)O)C(=O)O

T1: human amylin receptor (AMY3) on CHO-K1/Ga15/AMY3 amylin receptor/CRE-luc cells (human, UniProt P30988 25-474; O60896 24-148)
T1 sequence (looked up) 1: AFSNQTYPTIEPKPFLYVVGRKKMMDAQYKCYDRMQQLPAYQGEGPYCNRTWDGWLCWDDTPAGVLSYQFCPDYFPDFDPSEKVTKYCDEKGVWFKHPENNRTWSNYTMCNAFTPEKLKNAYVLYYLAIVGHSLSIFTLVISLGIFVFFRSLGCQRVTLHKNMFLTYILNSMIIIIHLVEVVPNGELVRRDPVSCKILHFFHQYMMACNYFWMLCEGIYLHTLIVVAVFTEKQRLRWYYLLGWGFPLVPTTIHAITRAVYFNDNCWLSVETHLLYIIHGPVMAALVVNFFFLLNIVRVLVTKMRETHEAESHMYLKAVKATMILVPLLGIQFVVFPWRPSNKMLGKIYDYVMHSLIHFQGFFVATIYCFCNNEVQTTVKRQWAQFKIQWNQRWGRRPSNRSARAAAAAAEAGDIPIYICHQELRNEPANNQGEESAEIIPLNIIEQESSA
T1 sequence (looked up) 2: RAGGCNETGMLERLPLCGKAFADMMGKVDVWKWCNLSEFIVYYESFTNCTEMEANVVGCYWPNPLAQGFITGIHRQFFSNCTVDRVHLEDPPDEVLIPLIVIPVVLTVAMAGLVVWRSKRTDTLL

B1: polypeptide derivative M45 (peptide)
peptide: {C20 diacid-γGlu}-ASQLSTAATQRLADFLRHSSN[NMeD]LKPILPPTNVGSNT[Hyp]-NH2
SMILES: CC[C@H](C)[C@H](NC(=O)[C@@H]1CCCN1C(=O)[C@H](CCCCN)NC(=O)[C@H](CC(C)C)NC(=O)[C@H](CC(=O)O)N(C)C(=O)[C@H](CC(N)=O)NC(=O)[C@H](CO)NC(=O)[C@H](CO)NC(=O)[C@H](Cc1c[nH]cn1)NC(=O)[C@H](CCCNC(=N)N)NC(=O)[C@H](CC(C)C)NC(=O)[C@H](Cc1ccccc1)NC(=O)[C@H](CC(=O)O)NC(=O)[C@H](C)NC(=O)[C@H](CC(C)C)NC(=O)[C@H](CCCNC(=N)N)NC(=O)[C@H](CCC(N)=O)NC(=O)[C@@H](NC(=O)[C@H](C)NC(=O)[C@H](C)NC(=O)[C@@H](NC(=O)[C@H](CO)NC(=O)[C@H](CC(C)C)NC(=O)[C@H](CCC(N)=O)NC(=O)[C@H](CO)NC(=O)[C@H](C)NC(=O)CC[C@H](NC(=O)CCCCCCCCCCCCCCCCCCC(=O)O)C(=O)O)[C@@H](C)O)[C@@H](C)O)C(=O)N[C@@H](CC(C)C)C(=O)N1CCC[C@H]1C(=O)N1CCC[C@H]1C(=O)N[C@H](C(=O)N[C@@H](CC(N)=O)C(=O)N[C@H](C(=O)NCC(=O)N[C@@H](CO)C(=O)N[C@@H](CC(N)=O)C(=O)N[C@H](C(=O)N1C[C@H](O)C[C@H]1C(N)=O)[C@@H](C)O)C(C)C)[C@@H](C)O
B2: polypeptide derivative M49 (peptide)
peptide: {C20 diacid-γGlu}-ASQLSTAATQRLADFLRHSSTNLKPILPPTNVGSNT[Hyp]-NH2
SMILES: CC[C@H](C)[C@H](NC(=O)[C@@H]1CCCN1C(=O)[C@H](CCCCN)NC(=O)[C@H](CC(C)C)NC(=O)[C@H](CC(N)=O)NC(=O)[C@@H](NC(=O)[C@H](CO)NC(=O)[C@H](CO)NC(=O)[C@H](Cc1c[nH]cn1)NC(=O)[C@H](CCCNC(=N)N)NC(=O)[C@H](CC(C)C)NC(=O)[C@H](Cc1ccccc1)NC(=O)[C@H](CC(=O)O)NC(=O)[C@H](C)NC(=O)[C@H](CC(C)C)NC(=O)[C@H](CCCNC(=N)N)NC(=O)[C@H](CCC(N)=O)NC(=O)[C@@H](NC(=O)[C@H](C)NC(=O)[C@H](C)NC(=O)[C@@H](NC(=O)[C@H](CO)NC(=O)[C@H](CC(C)C)NC(=O)[C@H](CCC(N)=O)NC(=O)[C@H](CO)NC(=O)[C@H](C)NC(=O)CC[C@H](NC(=O)CCCCCCCCCCCCCCCCCCC(=O)O)C(=O)O)[C@@H](C)O)[C@@H](C)O)[C@@H](C)O)C(=O)N[C@@H](CC(C)C)C(=O)N1CCC[C@H]1C(=O)N1CCC[C@H]1C(=O)N[C@H](C(=O)N[C@@H](CC(N)=O)C(=O)N[C@H](C(=O)NCC(=O)N[C@@H](CO)C(=O)N[C@@H](CC(N)=O)C(=O)N[C@H](C(=O)N1C[C@H](O)C[C@H]1C(N)=O)[C@@H](C)O)C(C)C)[C@@H](C)O
B3: polypeptide derivative M46 (peptide)
peptide: {C20 diacid-γGlu}-ASQLSTAATQRLADFLRHSSQNLKPILPPTNVGSNT[Hyp]-NH2
SMILES: CC[C@H](C)[C@H](NC(=O)[C@@H]1CCCN1C(=O)[C@H](CCCCN)NC(=O)[C@H](CC(C)C)NC(=O)[C@H](CC(N)=O)NC(=O)[C@H](CCC(N)=O)NC(=O)[C@H](CO)NC(=O)[C@H](CO)NC(=O)[C@H](Cc1c[nH]cn1)NC(=O)[C@H](CCCNC(=N)N)NC(=O)[C@H](CC(C)C)NC(=O)[C@H](Cc1ccccc1)NC(=O)[C@H](CC(=O)O)NC(=O)[C@H](C)NC(=O)[C@H](CC(C)C)NC(=O)[C@H](CCCNC(=N)N)NC(=O)[C@H](CCC(N)=O)NC(=O)[C@@H](NC(=O)[C@H](C)NC(=O)[C@H](C)NC(=O)[C@@H](NC(=O)[C@H](CO)NC(=O)[C@H](CC(C)C)NC(=O)[C@H](CCC(N)=O)NC(=O)[C@H](CO)NC(=O)[C@H](C)NC(=O)CC[C@H](NC(=O)CCCCCCCCCCCCCCCCCCC(=O)O)C(=O)O)[C@@H](C)O)[C@@H](C)O)C(=O)N[C@@H](CC(C)C)C(=O)N1CCC[C@H]1C(=O)N1CCC[C@H]1C(=O)N[C@H](C(=O)N[C@@H](CC(N)=O)C(=O)N[C@H](C(=O)NCC(=O)N[C@@H](CO)C(=O)N[C@@H](CC(N)=O)C(=O)N[C@H](C(=O)N1C[C@H](O)C[C@H]1C(N)=O)[C@@H](C)O)C(C)C)[C@@H](C)O
B4: polypeptide derivative M47 (peptide)
peptide: {C20 diacid-γGlu}-ASQLSTAATQRLADFLRHSSENLKPILPPTNVGSNT[Hyp]-NH2
SMILES: CC[C@H](C)[C@H](NC(=O)[C@@H]1CCCN1C(=O)[C@H](CCCCN)NC(=O)[C@H](CC(C)C)NC(=O)[C@H](CC(N)=O)NC(=O)[C@H](CCC(=O)O)NC(=O)[C@H](CO)NC(=O)[C@H](CO)NC(=O)[C@H](Cc1c[nH]cn1)NC(=O)[C@H](CCCNC(=N)N)NC(=O)[C@H](CC(C)C)NC(=O)[C@H](Cc1ccccc1)NC(=O)[C@H](CC(=O)O)NC(=O)[C@H](C)NC(=O)[C@H](CC(C)C)NC(=O)[C@H](CCCNC(=N)N)NC(=O)[C@H](CCC(N)=O)NC(=O)[C@@H](NC(=O)[C@H](C)NC(=O)[C@H](C)NC(=O)[C@@H](NC(=O)[C@H](CO)NC(=O)[C@H](CC(C)C)NC(=O)[C@H](CCC(N)=O)NC(=O)[C@H](CO)NC(=O)[C@H](C)NC(=O)CC[C@H](NC(=O)CCCCCCCCCCCCCCCCCCC(=O)O)C(=O)O)[C@@H](C)O)[C@@H](C)O)C(=O)N[C@@H](CC(C)C)C(=O)N1CCC[C@H]1C(=O)N1CCC[C@H]1C(=O)N[C@H](C(=O)N[C@@H](CC(N)=O)C(=O)N[C@H](C(=O)NCC(=O)N[C@@H](CO)C(=O)N[C@@H](CC(N)=O)C(=O)N[C@H](C(=O)N1C[C@H](O)C[C@H]1C(N)=O)[C@@H](C)O)C(C)C)[C@@H](C)O
B5: polypeptide derivative M48 (peptide)
peptide: {C20 diacid-γGlu}-ASQLSTAATQRLADFLRHSSSNLKPILPPTNVGSNT[Hyp]-NH2
SMILES: CC[C@H](C)[C@H](NC(=O)[C@@H]1CCCN1C(=O)[C@H](CCCCN)NC(=O)[C@H](CC(C)C)NC(=O)[C@H](CC(N)=O)NC(=O)[C@H](CO)NC(=O)[C@H](CO)NC(=O)[C@H](CO)NC(=O)[C@H](Cc1c[nH]cn1)NC(=O)[C@H](CCCNC(=N)N)NC(=O)[C@H](CC(C)C)NC(=O)[C@H](Cc1ccccc1)NC(=O)[C@H](CC(=O)O)NC(=O)[C@H](C)NC(=O)[C@H](CC(C)C)NC(=O)[C@H](CCCNC(=N)N)NC(=O)[C@H](CCC(N)=O)NC(=O)[C@@H](NC(=O)[C@H](C)NC(=O)[C@H](C)NC(=O)[C@@H](NC(=O)[C@H](CO)NC(=O)[C@H](CC(C)C)NC(=O)[C@H](CCC(N)=O)NC(=O)[C@H](CO)NC(=O)[C@H](C)NC(=O)CC[C@H](NC(=O)CCCCCCCCCCCCCCCCCCC(=O)O)C(=O)O)[C@@H](C)O)[C@@H](C)O)C(=O)N[C@@H](CC(C)C)C(=O)N1CCC[C@H]1C(=O)N1CCC[C@H]1C(=O)N[C@H](C(=O)N[C@@H](CC(N)=O)C(=O)N[C@H](C(=O)NCC(=O)N[C@@H](CO)C(=O)N[C@@H](CC(N)=O)C(=O)N[C@H](C(=O)N1C[C@H](O)C[C@H]1C(N)=O)[C@@H](C)O)C(C)C)[C@@H](C)O
B6: polypeptide derivative M50 (peptide)
peptide: {C20 diacid-γGlu}-ASQLSTAATQRLADFLRHSSANLKPILPPTNVGSNT[Hyp]-NH2
SMILES: CC[C@H](C)[C@H](NC(=O)[C@@H]1CCCN1C(=O)[C@H](CCCCN)NC(=O)[C@H](CC(C)C)NC(=O)[C@H](CC(N)=O)NC(=O)[C@H](C)NC(=O)[C@H](CO)NC(=O)[C@H](CO)NC(=O)[C@H](Cc1c[nH]cn1)NC(=O)[C@H](CCCNC(=N)N)NC(=O)[C@H](CC(C)C)NC(=O)[C@H](Cc1ccccc1)NC(=O)[C@H](CC(=O)O)NC(=O)[C@H](C)NC(=O)[C@H](CC(C)C)NC(=O)[C@H](CCCNC(=N)N)NC(=O)[C@H](CCC(N)=O)NC(=O)[C@@H](NC(=O)[C@H](C)NC(=O)[C@H](C)NC(=O)[C@@H](NC(=O)[C@H](CO)NC(=O)[C@H](CC(C)C)NC(=O)[C@H](CCC(N)=O)NC(=O)[C@H](CO)NC(=O)[C@H](C)NC(=O)CC[C@H](NC(=O)CCCCCCCCCCCCCCCCCCC(=O)O)C(=O)O)[C@@H](C)O)[C@@H](C)O)C(=O)N[C@@H](CC(C)C)C(=O)N1CCC[C@H]1C(=O)N1CCC[C@H]1C(=O)N[C@H](C(=O)N[C@@H](CC(N)=O)C(=O)N[C@H](C(=O)NCC(=O)N[C@@H](CO)C(=O)N[C@@H](CC(N)=O)C(=O)N[C@H](C(=O)N1C[C@H](O)C[C@H]1C(N)=O)[C@@H](C)O)C(C)C)[C@@H](C)O

biological target: T1, human amylin receptor (AMY3) on …; test: cell-based or functional assay

| Binder | EC50/nM, CRE-luciferase reporter in amylin receptor/CRE-luc CHO cells | Relative activity (the EC50 ratio of Cagrilintide to the compound) |
| --- | --- | --- |
| B1 | 0.07 nM | 129% |
| B2 | 0.08 nM | 163% |
| B3 | 0.06 nM | 150% |
| B4 | 0.08 nM | 113% |
| B5 | 0.05 nM | 180% |
| B6 | 0.07 nM | 186% |
